Source: article PMC8650744

Target: HIV-1 Matrix (MA) WT (HIV-1, UniProt C1JB69 1-131)
Assay: ITC

B1: tRNALys3 A7U/U66A (structured_RNA)
RNA: GCCCGGUUAGCUCAGUCGGUAGAGCAUCAGACUUUUAAUCUGAGGGUCCAGGGUUCAAGUCCCUGAUCGGGCGCCA
Q: How did the binding signal turn out when B1 was run?
A: 2 fold Kd increase vs WT tRNA
